Key:
Details in all cases: remark: other sources report otherwise
[1] = target: T1, recombinant soluble homotrimeric HA of A/Japan/305/57 (H2N2) (Influenza A virus A/Japan/305/1957(H2N2)); test: HA microarray, BCC supernatant
[2] = target: T2, recombinant soluble homotrimeric HA of A/Egypt/3300-NAMRU3/08 (H5N1) (Influenza A virus A/Egypt/3300-NAMRU3/2008(H5N1)); test: HA microarray, BCC supernatant
[3] = target: T3, recombinant soluble homotrimeric HA of A/Wisconsin/67/05 (H3N2) (Influenza A virus A/Wisconsin/67/2005(H3N2)); test: HA microarray, BCC supernatant
[4] = target: recombinant soluble homotrimeric HA of A/Hong Kong/2108/03 (H9N2) (Influenza A virus A/HK/2108/2003(H9N2)); test: HA microarray, BCC supernatant
[5] = target: T4, recombinant soluble homotrimeric HA of A/California/4/09 (H1N1) (Influenza A virus A/California/04/2009(H1N1)); test: HA microarray, BCC supernatant
[6] = target: T5, recombinant soluble homotrimeric HA of A/Indonesia/5/05 (H5N1) (Influenza A virus A/Indonesia/5/2005(H5N1)); test: HA microarray, BCC supernatant
[7] = target: T6, recombinant soluble homotrimeric HA of A/swine/Ontario/01911-2/99 (H4N6) (Influenza A virus A/Swine/Ontario/01911-2/99 (H4N6)); test: HA microarray, BCC supernatant
[8] = target: T7, recombinant soluble homotrimeric HA of A/Vietnam/1203/04 (H5N1) (Influenza A virus A/VietNam/1203/2004(H5N1)); test: HA microarray, BCC supernatant
[9] = target: recombinant soluble homotrimeric HA of A/northern shoveler/California/HKWF115/07 (H6) (Influenza A virus A/northern shoveler/California/HKWF115/2007(H6N1)); test: HA microarray, BCC supernatant
[10] = target: T8, recombinant soluble homotrimeric HA of A/chicken/Vietnam/NCVD-016/08 (H5N1) (Influenza A virus A/chicken/Vietnam/NCVD-016/2008(H5N1)); test: HA microarray, BCC supernatant
[11] = target: T9, recombinant soluble homotrimeric HA of A/duck/Yangzhou/02/05 (H8N4) (Influenza A virus A/duck/Yangzhou/02/2005(H8N4)); test: HA microarray, BCC supernatant
[12] = target: recombinant soluble homotrimeric HA of A/Anhui/1/05 (H5N1) (Influenza A virus A/Anhui/1/2005(H5N1)); test: HA microarray, BCC supernatant
[13] = target: T10, recombinant soluble homotrimeric HA of A/Netherlands/219/03 (H7N7) (Influenza A virus A/Netherlands/219/03(H7N7)); test: HA microarray, BCC supernatant
[14] = target: recombinant homotrimeric HA A/Netherlands/219/03 H7N7 (Influenza A virus A/Netherlands/219/03(H7N7)); test: protein microarray, purified IgG, trimeric HA
[15] = target: recombinant homotrimeric HA A/Wisconsin/67/05 H3N2 (Influenza A virus A/Wisconsin/67/2005(H3N2)); test: protein microarray, purified IgG, trimeric HA
[16] = target: recombinant homotrimeric HA A/Hong Kong/156/97 H5N1 (Influenza A virus A/Hong Kong/156/97 (H5N1)); test: protein microarray, purified IgG, trimeric HA
[17] = target: recombinant homotrimeric HA A/Hong Kong/2108/03 H9N2 (Influenza A virus A/HK/2108/2003(H9N2)); test: protein microarray, purified IgG, trimeric HA
[18] = target: recombinant homotrimeric HA A/Vietnam/1203/04 H5N1 (Influenza A virus A/VietNam/1203/2004(H5N1)); test: protein microarray, purified IgG, trimeric HA
[19] = target: recombinant homotrimeric HA A/Egypt/3300-NAMRU3/08 H5N1 (Influenza A virus A/Egypt/3300-NAMRU3/2008(H5N1)); test: protein microarray, purified IgG, trimeric HA
[20] = target: recombinant homotrimeric HA A/Japan/305/57 H2N2 (Influenza A virus A/Japan/305/1957(H2N2)); test: protein microarray, purified IgG, trimeric HA
[21] = target: recombinant homotrimeric HA A/California/4/09 H1N1 (Influenza A virus A/California/04/2009(H1N1)); test: protein microarray, purified IgG, trimeric HA
[22] = target: recombinant homotrimeric HA A/South Carolina/1/18 H1N1 (Influenza A virus A/South Carolina/1/18 (H1N1)); test: protein microarray, purified IgG, trimeric HA
[23] = target: T1, recombinant soluble homotrimeric HA of …; test: trimeric HA microarray, transfection supernatant set 5
[24] = target: T2, recombinant soluble homotrimeric HA of …; test: as above
[25] = target: T3, recombinant soluble homotrimeric HA of …; test: as above
[26] = target: recombinant soluble homotrimeric HA of A/South Carolina/1/18 (H1N1) (Influenza A virus A/South Carolina/1/18 (H1N1)); test: as above
[27] = target: T4, recombinant soluble homotrimeric HA of …; test: as above
[28] = target: T5, recombinant soluble homotrimeric HA of …; test: as above
[29] = target: T6, recombinant soluble homotrimeric HA of …; test: as above
[30] = target: T7, recombinant soluble homotrimeric HA of …; test: as above
[31] = target: recombinant soluble homotrimeric HA of A/Hong Kong/156/97 (H5N1) (Influenza A virus A/Hong Kong/156/97 (H5N1)); test: as above
[32] = target: T8, recombinant soluble homotrimeric HA of …; test: as above
[33] = target: T9, recombinant soluble homotrimeric HA of …; test: as above
[34] = target: T10, recombinant soluble homotrimeric HA of …; test: as above

B1: TCN-537 (3194_D21) (antibody, V domains shown)
VH: QVQLQQWGSGLLKPSETLSLTCAVYGGSFRDDYWTWIRQPPGKGLEWIGEINHSGRTNYNPSLKSRVTISVDTSLKQFSLKVISVTAADTAVYYCARGTSHVSRYFDWLPPTNWFDPWGQGTQVTVSS
VL: DIVLTQSPGTLSLSPGERATLSCRASQSVSSSYLAWYQQKPGQAPRLVMYGAATRATGIPDRFSGSGSGPDFTLTISRLEPEDFAMYYCQQYGNSPITFGQGTRLEIK
Trimeric HA Binding: RLU [1]: 44700 RLU
Trimeric HA Binding: RLU [2]: 38200 RLU
Trimeric HA Binding: RLU [3]: 549 RLU
Trimeric HA Binding: RLU [4]: 147 RLU
Trimeric HA Binding: RLU [5]: 21900 RLU
Trimeric HA Binding: RLU [6]: 14900 RLU
Trimeric HA Binding: RLU [7]: 19 RLU
Trimeric HA Binding: RLU [8]: 80 RLU
Trimeric HA Binding: RLU [9]: 5210 RLU
Trimeric HA Binding: RLU [10]: 8620 RLU
Trimeric HA Binding: RLU [11]: 7830 RLU
Trimeric HA Binding: RLU [12]: 335 RLU
Trimeric HA Binding: RLU [13]: 1050 RLU
Trimeric HA Binding: RLU [14]: 729 RLU
Trimeric HA Binding: RLU [15]: 154 RLU
Trimeric HA Binding: RLU [16]: 862 RLU
Trimeric HA Binding: RLU [17]: 171 RLU
Trimeric HA Binding: RLU [18]: 5690 RLU
Trimeric HA Binding: RLU [19]: 3190 RLU
Trimeric HA Binding: RLU [20]: 19500 RLU
Trimeric HA Binding: RLU [21]: 10200 RLU
Trimeric HA Binding: RLU [22]: 2840 RLU
Trimeric HA Binding: RLU [23]: 16200 RLU
Trimeric HA Binding: RLU [24]: 33500 RLU
Trimeric HA Binding: RLU [25]: 1940 RLU
Trimeric HA Binding: RLU [26]: 46800 RLU
Trimeric HA Binding: RLU [27]: 33800 RLU
Trimeric HA Binding: RLU [28]: 2420 RLU
Trimeric HA Binding: RLU [29]: 3280 RLU
Trimeric HA Binding: RLU [30]: 50300 RLU
Trimeric HA Binding: RLU [31]: 10700 RLU
Trimeric HA Binding: RLU [32]: 4480 RLU
Trimeric HA Binding: RLU [33]: 25500 RLU
Trimeric HA Binding: RLU [34]: 3650 RLU
